{"source": "the supplement of paper PMC9170038", "data": [{"test_system": "K4 kissing-loop RNA reporter", "assay": "apparent KD of K4 kissing-loop reporter; higher = weaker reporter binding", "settings": "Eterna round: R107; input ligand: arginine 13.2 mM", "protocol": "(§1)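 RNA-MaP round R107: designed RNA switches with theophylline, tryptophan, arginine or FMN aptamers are transcribed on-chip within common flanks. They are titrated with a labelled K4 kissing-loop RNA reporter in RNA-MaP buffer (100 mM Tris pH 7.5, 80 mM KCl, 4 mM MgCl2), without ligand or with the indicated ligand. Median apparent KD per design.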", "units": {"apparent KD of K4 kissing-loop reporter": "nM"}, "values": [{"sequence": "GCAUCCAUGGCAGGAUAUAGGUUCAUGGAGUGAUGUUCCAUAACCCGAGUGAUGUUCGUUAUCCACCUAGAAGGGCCAUGGAUGC", "apparent KD of K4 kissing-loop reporter": 173}, {"sequence": "UGUCAUUGGUCGGCCGCCACUAGGACCGGGUUUUACCUAGUGAUGUUAGUAUGAACGGCCGCCACUAGGACCGGGACCGAUGACU [KL-SSTryp-B25 #DoubleAptamer]", "apparent KD of K4 kissing-loop reporter": 195}, {"sequence": "UGGAGGAGUGAUGUUCCCGAAACAUGAGAUACCAGCGUCACAGUCCGCCCUUGGCAGCUCGGUCCAAUUUGCCUCGCGGGUAAUG [theeternabot_sameState_KL_Theo_A_23]", "apparent KD of K4 kissing-loop reporter": 251}, {"sequence": "UUGGUUGUCGUAGGAUAUGUAGGAUAUUCUAAAAUAUGAAGUGAUGUUUCUAUAAUAAGAAGAAGGACAGAAGGACGAUAACCAU [FmnBS 2 - Salish transfer #DoubleAptamer]", "apparent KD of K4 kissing-loop reporter": 100}, {"sequence": "CCUAUCUCAUACGAUACCAGUCCGAGUGAUGUUCGAACAGGUUUUAGUUUGCCAUAUAAUGACCCUUGGCAGCGUAUGGGAUAGG [Ex Theophylline B K4 13]", "apparent KD of K4 kissing-loop reporter": 123}, {"sequence": "CGCAGUGAUGUUGCGAGUAGCUACAGGGAAGGAGCGUGCUAGAGCACAGGUAGGUCGCCCAGUGGCAGUGAUGUUGCCAACGGGU [Exclusion ARginine A GF 18]", "apparent KD of K4 kissing-loop reporter": 110}, {"sequence": "CCAUUCUUUUACGAUACCAGUUUUAUUUAGUUAUUCAUAACCCUUGCCGAGUGAUGUUCGGACCCUUGGCAGCGUUUGCGAGAGG [zaadvmullin]", "apparent KD of K4 kissing-loop reporter": 299}, {"sequence": "AAACGCUGGAUGAAUAACAUCUAGCGAAUUCGAGGACCGGUACGGCCGCCACUCGAGCUAACUGCGAGUGAUGUUCGAUAAUAAA [Mat - Mod of OpenEnded 3 - D1]", "apparent KD of K4 kissing-loop reporter": 451}, {"sequence": "GGACUCAAAUGUAGUGAUGUUACAAGCGAUACCAGUAUCUAACAUUACCCUUGGCAGCGCGCCCAGCUCAGCAAAUUAGAUAGCG [theeternabot_sameState_KL_Theo_A_43]", "apparent KD of K4 kissing-loop reporter": 204}, {"sequence": "CGCAGUGAUGUUGCGAGUAACUACAGGGAAGGAGCGUGCUAAAGCACAGGUAGGUCGCCCAUGCAGUGAUGUUGUGUAAAAGGGU [Excluson Arginine A GF 13]", "apparent KD of K4 kissing-loop reporter": 98.6}, {"sequence": "AACCGUGUGGCGGCCGCCACUAGUCUCCAGUGAUGUUGGAGAGACCACGUAAGUGGUCUCCGACAUAGGACCGGGCCAUAUGGAA [Same State - Tryptophan B (Freestyle 25)]", "apparent KD of K4 kissing-loop reporter": 339}, {"sequence": "UGAUAGGACAGAAGGAGCGGAAUGCUGUCCAAAAGGACAGCAAAUAUAACAGGAGUGAUGUUCCAGGUAGGUCGCUGUCCUAUCU [ArgBX 21 #SwitchBubble #StaticStem]", "apparent KD of K4 kissing-loop reporter": 197}, {"sequence": "AAUCAAUACAGAAGGAGCGUGACAAUUACUAUUGAAUUAGGUGCUAGUGAUGUUAGCAUUACACAGGUAGGUCGCUGUACAUUUA [JR_SSArginiB_Sub011]", "apparent KD of K4 kissing-loop reporter": 85.5}, {"sequence": "CGGCUUAGUAGCGCGAGUUGACGUGCCAUCCGAGGACCGGUACGGCCGCCACUCGUGAUCUGUUAAAGUGAUGUUUUAAUGCCAU", "apparent KD of K4 kissing-loop reporter": 602}, {"sequence": "AUUAAUUUCAGAGGAUAUGCUUAAUUGAUUUAUUAUUAUCUAUUAUGCAGUGAUGUUGCAUAUUUUGCAGAAGGCUGAUUUAUAA [JR_SSFMNB_Sub018]", "apparent KD of K4 kissing-loop reporter": 156}, {"sequence": "GGAUAGGAUAGAGGAUAUGGUUUAUGCAGGAAUAACUUAUUGUGUAAAUCCAUAGGGAGUGAUGUUCCAGAAGGCUGUCCUAUCG [MatMod 14 - Jieux - Exclusion - FMN B]", "apparent KD of K4 kissing-loop reporter": 218}, {"sequence": "AGACGCCAGUCGGCCGCCACUCACAGCAGUGAUGUUGCUGAAAAUCUAGAAGAGUGAUGUUCUUAGAGGACCGGGACUCCAGUCG [Same State Tryptophan B GF 6]", "apparent KD of K4 kissing-loop reporter": 153}, {"sequence": "UGUCUGAUGGAAACAUCGGACUUUACUGAUACCAGUAUCGAUAGAUACCCUUGGCAGCAGAAUCAGUAAUAACGAGUGAUGUUCG [Ex Theophylline A K4 3]", "apparent KD of K4 kissing-loop reporter": 280}, {"sequence": "UGAUACCAGACUGAUACCAGCUAGUGAUGUUAGCUGAUCUAAGGACCGUCAAAGACGGCUAGCCCUUGGCAGCAGUCUGGUAUCU [TheoBX 13 #SwitchBubble #StaticStem]", "apparent KD of K4 kissing-loop reporter": 105}, {"sequence": "UGGACCUGACUCGAUAAGAGUCAAUGGGAUACCAGCCACGAAAGUGGCCCUUGGCAGCUCUACCAGUGAUGUUGGUCAAGGUCCU [#SwitchBubble 8 #StaticStem]", "apparent KD of K4 kissing-loop reporter": 511}, {"sequence": "UGUGGAGGAUAUGAUACCAGCAGUGAGAGAGAGGAAGUAUAGUGAUGUUAUAUGAGAGAAUGCCCUUGGCAGCGUGUGUAGUAGG [SSTheophylB.J]", "apparent KD of K4 kissing-loop reporter": 165}, {"sequence": "CGUUUAUAGCAGGAUACCAGUACCCAUUAUGUACGUUUAUAGUAGAGUGAUGUUCUAAAGUACCCUUGGCAGCUUCCUGUGACCC [ExTheophylB.Aa]", "apparent KD of K4 kissing-loop reporter": 168}, {"sequence": "UUCUUGAUGGAAACAUCGAGGAUUACUGAUACCAGUAUCGAUAGAUACCCUUGGCAGCAGAAUCAGUGAUCACGAGUGAUGUUCG [Ex Theophylline A K4 10]", "apparent KD of K4 kissing-loop reporter": 551}, {"sequence": "AACACCCGCUAUGAUACCAGUGAAGUGAUGUUUUACUCCGGGCGUAAGACAAAGGUCAGCCACCCUUGGCAGCAUAUCCGCGUAU [theeternabot_exclusion_KL_Theo_B_35]", "apparent KD of K4 kissing-loop reporter": 418}]}, {"test_system": "K4 kissing-loop RNA reporter", "assay": "apparent KD of K4 kissing-loop reporter; higher = weaker reporter binding", "settings": "Eterna round: R107; input ligand: none", "protocol": "as §1", "units": {"apparent KD of K4 kissing-loop reporter": "nM"}, "values": [{"sequence": "ACGGAUUCGAAUACCGAAUGAAAUAGGGAUACCAGCACGUGAACGUGCCCUUGGCAGCCCAGCCCAGUGAUGUUGGGCCCAUGGC [Biso]", "apparent KD of K4 kissing-loop reporter": 179}, {"sequence": "GGGAGUAGUGCGGCCGCCACUGUGAAAGUAGAAGAAUAUAGUGAUGUUAUAUAGGAUUAAAAGAAUAGGACCGGGCAUUAGAUUU [SSTRyptB.W]", "apparent KD of K4 kissing-loop reporter": 219}, {"sequence": "AAUUCAAACUGAAGGAGCGAGCAAAUCGGAGUGAUGUUCCAAGCGAGUGAUGUUCGCAUAGCUCAGGUAGGUCGCAGUUUGGAUA [Same State Arginie B GF 13]", "apparent KD of K4 kissing-loop reporter": 107}, {"sequence": "UGAUACCAGACGGCCGCCACUUCUGCAAGUCAAAGACUUGCUAAGGGAAUCGUCCAGUGAUGUUGGAGGACCGGGUCUGGUAUCU [FiskerMod 2 - Jieux - Exclusion - Tryptophan B]", "apparent KD of K4 kissing-loop reporter": 1200}, {"sequence": "UGAUACCAGACGGCCGCCACUAGGACCGGGAGUGAUGUUCCCAAUUUAAAAUGCUCGGCCGCCACUAGGACCGGGUCUGGUAUCU [TrypBX 27 #DoubleAptamer #SwitchBubble]", "apparent KD of K4 kissing-loop reporter": 198}, {"sequence": "UGACUGGACUGAAGGAGCGUUGAAGGAGCGUAGGCAGUGAUGUUGCCUACAGGUAGGUCGCAGCAGGUAGGUCGCAGUCUAGUCU [ArgBS 27 #DoubleAptamer #SwitchBubble]", "apparent KD of K4 kissing-loop reporter": 108}, {"sequence": "AAAGAUCUUCUAGAAACUAGAAGAUCAAGAGAGGAUAUCCGAAUUCGGAGAAGGCUCACUAAGUGAUGUUUGGAGCCAAUGGCAA [AK2 SS FMN A]", "apparent KD of K4 kissing-loop reporter": 1210}, {"sequence": "GCAUCCAUGGCAGGAUAUAGGUUCAUGGAGUGAUGUUCCAUAACCCGAGUGAUGUUCGUUAUCCACCUAGAAGGGCCAUGGAUGC", "apparent KD of K4 kissing-loop reporter": 206}, {"sequence": "UGUCAUUGGUCGGCCGCCACUAGGACCGGGUUUUACCUAGUGAUGUUAGUAUGAACGGCCGCCACUAGGACCGGGACCGAUGACU [KL-SSTryp-B25 #DoubleAptamer]", "apparent KD of K4 kissing-loop reporter": 322}, {"sequence": "UGGAGGAGUGAUGUUCCCGAAACAUGAGAUACCAGCGUCACAGUCCGCCCUUGGCAGCUCGGUCCAAUUUGCCUCGCGGGUAAUG [theeternabot_sameState_KL_Theo_A_23]", "apparent KD of K4 kissing-loop reporter": 299}, {"sequence": "UUGGUUGUCGUAGGAUAUGUAGGAUAUUCUAAAAUAUGAAGUGAUGUUUCUAUAAUAAGAAGAAGGACAGAAGGACGAUAACCAU [FmnBS 2 - Salish transfer #DoubleAptamer]", "apparent KD of K4 kissing-loop reporter": 111}, {"sequence": "CCUAUCUCAUACGAUACCAGUCCGAGUGAUGUUCGAACAGGUUUUAGUUUGCCAUAUAAUGACCCUUGGCAGCGUAUGGGAUAGG [Ex Theophylline B K4 13]", "apparent KD of K4 kissing-loop reporter": 163}, {"sequence": "CGCAGUGAUGUUGCGAGUAGCUACAGGGAAGGAGCGUGCUAGAGCACAGGUAGGUCGCCCAGUGGCAGUGAUGUUGCCAACGGGU [Exclusion ARginine A GF 18]", "apparent KD of K4 kissing-loop reporter": 110}, {"sequence": "CCAUUCUUUUACGAUACCAGUUUUAUUUAGUUAUUCAUAACCCUUGCCGAGUGAUGUUCGGACCCUUGGCAGCGUUUGCGAGAGG [zaadvmullin]", "apparent KD of K4 kissing-loop reporter": 355}, {"sequence": "AAACGCUGGAUGAAUAACAUCUAGCGAAUUCGAGGACCGGUACGGCCGCCACUCGAGCUAACUGCGAGUGAUGUUCGAUAAUAAA [Mat - Mod of OpenEnded 3 - D1]", "apparent KD of K4 kissing-loop reporter": 441}]}]}
